For one substance, stoichiometry N results are on record in PMC5757783.

The target of this assay is histone H2A-N38C (Xenopus laevis). The assay is described as follows: cross-linking.

Turning to histone H2A-N38C (natural protein), the stoichiometry N was determined as 2.
